Data on one substance can be found in US6989362.

This data set deals with phospho-Thr75 DARPP-32.

With “purified catalytic subunit of cAMP-dependent protein kinase (PKA)”, the “phosphorylation of Thr34 DARPP-32 by PKA in vitro” value is “The ability of PKA to phosphorylate Thr34 DARPP-32 in vitro was virtually abolished by prior phosphorylation at Thr75”.
